Assay results taken from article PMC6882556, “Cryo-EM structure of the KvAP channel reveals a non-domain-swapped voltage sensor topology” (eLife, 2019).

Biological target: the molecule itself
Experiment: cryo-EM structure; KvAP(12-282) tetramer purified as a complex with 6E1 Fab; 20 mM Tris-HCl pH 8.0, 150 mM KCl, 0.06% digitonin; C4 symmetry applied; final map ~5.9 Å

B1: KvAP, voltage-gated K+ channel from Aeropyrum pernix (residues 12-282) (natural protein, UniProt Q9YDF8 25-295, looked up)
chain: GGRVRNIGDVMEHPLVELGVSYAALLSVIVVVVEYTMQLSGEYLVRLYLVDLILVIILWADYAYRAYKSGDPAGYVKKTLYEIPALVPAGLLALIEGHLAGLGLFRLVRLLRFLRILLIISRGSKFLSAIADAADKIRFYHLFGAVMLTVLYGAFAIYIVEYPDPNSSIKSVFDALWWAVVTATTVGYGDVVPATPIGKVIGIAVMLTGISALTLLIGTVSNMFQKILVGEPEPSCSPAKLAEMVSSMSEEEFEEFVRTLKNLRRLENSMK
notes: KvAP, voltage-gated potassium channel of Aeropyrum pernix, residues 12-282; In the cryo-EM sample the tetramer carried 6E1 Fab fragments on its voltage sensors; also called KvAP tetramer
B1 was tested. Which “stoichiometry N” value did it give?
Its value is 4.
